Assay results as given in patent US20120276102A1 (Pfizer, published 2012).

What was measured:
[1] = molecular target: T1, murine IL-21R extracellular domain His-Flag fusion protein (murine, UniProt Q9JHX3 20-237); test: competition ELISA; competitor plate-bound 18A5 IgG
T1 construct: Biotinylated in the ELISAs; also called mIL-21R-H/F; murine IL-21R-H/F
Experimental: Blocked plates were washed 3× with PBS, and 50 μl/well of scFv/IL-21R mixtures were transferred to the appropriate plates and incubated for 1 hr at RT. Plates were washed 5× with PBS prior to the addition of a 1:6000 dilution of horseradish peroxidase-conjugated streptavidin (Southern Biotech, Birmingham, Ala.) secondary antibody to detect bound biotinylated mIL-21R-H/F. Plates were then incubated for 1 hr at RT and washed 7× with PBS. Signal was developed using 3,3′,5,5′-tetramethylbenzidine (TMB), the reaction stopped with H₂SO₄, and the absorbance read at 450 nm on an ENVISION™ plate reader (Perkin Elmer).

[2] = molecular target: murine IL-21R expressed on cells (murine, UniProt Q9JHX3 20-529); test: cell-based or functional assay
[3] = molecular target: human IL-21R expressed on cells (human, UniProt Q9HBE5 20-538); test: cell-based or functional assay
human IL-21R expressed on cells, sequence (Q9HBE5 20-538 limits assumed): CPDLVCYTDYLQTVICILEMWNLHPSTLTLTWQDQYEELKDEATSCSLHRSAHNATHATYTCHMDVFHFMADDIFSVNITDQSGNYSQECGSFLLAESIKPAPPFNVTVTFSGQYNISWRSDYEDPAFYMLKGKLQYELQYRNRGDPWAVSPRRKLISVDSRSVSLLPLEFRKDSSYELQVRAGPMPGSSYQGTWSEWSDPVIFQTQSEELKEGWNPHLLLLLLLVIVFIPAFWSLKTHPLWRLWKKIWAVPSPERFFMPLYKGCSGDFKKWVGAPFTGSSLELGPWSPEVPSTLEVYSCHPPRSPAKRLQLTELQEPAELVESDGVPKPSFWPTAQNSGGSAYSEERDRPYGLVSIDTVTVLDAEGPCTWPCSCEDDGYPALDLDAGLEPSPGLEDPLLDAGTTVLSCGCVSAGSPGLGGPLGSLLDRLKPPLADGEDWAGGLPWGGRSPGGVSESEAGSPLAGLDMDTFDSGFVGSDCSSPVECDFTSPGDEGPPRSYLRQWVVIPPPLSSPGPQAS

Binder	IC50 [1]	IC50, Murine IL-21R-BaF3 Neutralization Assay [2]	IC50, Human IL-21R-BaF3 Neutralization Assay [3]	IC50, Human IL-21R-TF1 Neutralization Assay [3]
scFv L6 (scFv) scFv: QVQLQESGPGLVKTSETLSLTCAVSGYSISSGYYWGWIRQPPGKGLEWIGSISHTGNTYYNPPLKSRVTISVDTSKNQFSLKLSSVTAADTAVYYCARGGGISRPEYWGKGTLVTVSSGGGGSGGGGSGGGGSALSSELTQDPPVSVALGQTVTLTCQGDSLRTYYASWYQQKSGQAPILLLYGKHKRPSGIPDRFSGSTSGDTASLTITGAQAEDEADYYCMSRSIWGNPHVLFGGGTQLTVL	4 nM	0.29 nM	5.9 nM	~150 nM
scFv L9 (scFv) scFv: QVQLQESGPGLVKTSETLSLTCAVSGYSISSGYYWGWIRQPPGKGLEWIGSISHTGNTYYNPPLKSRVTISVDTSKNQFSLKLSSVTAADTAVYYCARGGGISRPEYWGKGTLVTVSSGGGGSGGGGSGGGGSALSSELTQDPPVSVALGQTVTLTCQGDSLRTYYASWYQQKSGQAPILLLYGKHKRPSGIPDRFSGSTSGDTASLTITGAQAEDEADYYCVARSNKGNPHVLFGGGTQLTVL	7 nM	3.61 nM	2.8 nM	27.7 nM
scFv L11 (scFv) scFv: QVQLQESGPGLVKTSETLSLTCAVSGYSISSGYYWGWIRQPPGKGLEWIGSISHTGNTYYNPPLKSRVTISVDTSKNQFSLKLSSVTAADTAVYYCARGGGISRPEYWGKGTLVTVSSGGGGSGGGGSGGGGSALSSELTQDPPVSVALGQTVTLTCQGDSLRTYYASWYQQKSGQAPILLLYGKHKRPSGIPDRFSGSTSGDTASLTITGAQAEDEADYYCSSRSRHGNPHVLFGGGTQLTVL	6 nM	10 nM	4.2 nM	38.3 nM
scFv L13 (scFv) scFv: QVQLQESGPGLVKTSETLSLTCAVSGYSISSGYYWGWIRQPPGKGLEWIGSISHTGNTYYNPPLKSRVTISVDTSKNQFSLKLSSVTAADTAVYYCARGGGISRPEYWGKGTLVTVSSGGGGSGGGGSGGGGSALSSELTQDPPVSVALGQTVTLTCQGDSLRTYYASWYQQKSGQAPILLLYGKHKRPSGIPDRFSGSTSGDTASLTITGAQAEDEADYYCVTRNRYGNPHVLFGGGTQLTVL	7 nM	1.25 nM	11 nM	257 nM
scFv L20 (scFv) scFv: QVQLQESGPGLVKTSETLSLTCAVSGYSISSGYYWGWIRQPPGKGLEWIGSISHTGNTYYNPPLKSRVTISVDTSKNQFSLKLSSVTAADTAVYYCARGGGISRPEYWGKGTLVTVSSGGGGSGGGGSGGGGSALSSELTQDPPVSVALGQTVTLTCQGDSLRTYYASWYQQKSGQAPILLLYGKHKRPSGIPDRFSGSTSGDTASLTITGAQAEDEADYYCVSRSAKGNPHVLFGGGTQLTVL	5 nM	15.4 nM	3.1 nM	57.5 nM
scFv L12 (scFv) scFv: QVQLQESGPGLVKTSETLSLTCAVSGYSISSGYYWGWIRQPPGKGLEWIGSISHTGNTYYNPPLKSRVTISVDTSKNQFSLKLSSVTAADTAVYYCARGGGISRPEYWGKGTLVTVSSGGGGSGGGGSGGGGSALSSELTQDPPVSVALGQTVTLTCQGDSLRTYYASWYQQKSGQAPILLLYGKHKRPSGIPDRFSGSTSGDTASLTITGAQAEDEADYYCVARGTRGNPHVLFGGGTQLTVL	8 nM	87.8 nM	2.6 nM	54.9 nM
scFv L15 (scFv) scFv: QVQLQESGPGLVKTSETLSLTCAVSGYSISSGYYWGWIRQPPGKGLEWIGSISHTGNTYYNPPLKSRVTISVDTSKNQFSLKLSSVTAADTAVYYCARGGGISRPEYWGKGTLVTVSSGGGGSGGGGSGGGGSALSSELTQDPPVSVALGQTVTLTCQGDSLRTYYASWYQQKSGQAPILLLYGKHKRPSGIPDRFSGSTSGDTASLTITGAQAEDEADYYCSTRAIHGNPHVLFGGGTQLTVL	14 nM	53.5 nM	3.3 nM	30.3 nM
scFv L19 (scFv) scFv: QVQLQESGPGLVKTSETLSLTCAVSGYSISSGYYWGWIRQPPGKGLEWIGSISHTGNTYYNPPLKSRVTISVDTSKNQFSLKLSSVTAADTAVYYCARGGGISRPEYWGKGTLVTVSSGGGGSGGGGSGGGGSALSSELTQDPPVSVALGQTVTLTCQGDSLRTYYASWYQQKSGQAPILLLYGKHKRPSGIPDRFSGSTSGDTASLTITGAQAEDEADYYCVARAVRGNPHVLFGGGTQLTVL	15 nM	13.6 nM	4.5 nM	35.3 nM
scFv L14 (scFv) scFv: QVQLQESGPGLVKTSETLSLTCAVSGYSISSGYYWGWIRQPPGKGLEWIGSISHTGNTYYNPPLKSRVTISVDTSKNQFSLKLSSVTAADTAVYYCARGGGISRPEYWGKGTLVTVSSGGGGSGGGGSGGGGSALSSELTQDPPVSVALGQTVTLTCQGDSLRTYYASWYQQKSGQAPILLLYGKHKRPSGIPDRFSGSTSGDTASLTITGAQAEDEADYYCMARSRKGNPHVLFGGGTQLTVL	6 nM	6.49 nM	3.2 nM	33.5 nM
scFv L8 (scFv) scFv: QVQLQESGPGLVKTSETLSLTCAVSGYSISSGYYWGWIRQPPGKGLEWIGSISHTGNTYYNPPLKSRVTISVDTSKNQFSLKLSSVTAADTAVYYCARGGGISRPEYWGKGTLVTVSSGGGGSGGGGSGGGGSALSSELTQDPPVSVALGQTVTLTCQGDSLRTYYASWYQQKSGQAPILLLYGKHKRPSGIPDRFSGSTSGDTASLTITGAQAEDEADYYCTTRSTQGNPHVLFGGGTQLTVL	7 nM	715 nM	4.1 nM	51.3 nM
scFv L16 (scFv) scFv: QVQLQESGPGLVKTSETLSLTCAVSGYSISSGYYWGWIRQPPGKGLEWIGSISHTGNTYYNPPLKSRVTISVDTSKNQFSLKLSSVTAADTAVYYCARGGGISRPEYWGKGTLVTVSSGGGGSGGGGSGGGGSALSSELTQDPPVSVALGQTVTLTCQGDSLRTYYASWYQQKSGQAPILLLYGKHKRPSGIPDRFSGSTSGDTASLTITGAQAEDEADYYCVTRSAKGNPHVLFGGGTQLTVL	6 nM	4.71 nM	3.7 nM	67.4 nM
scFv L17 (scFv) scFv: QVQLQESGPGLVKTSETLSLTCAVSGYSISSGYYWGWIRQPPGKGLEWIGSISHTGNTYYNPPLKSRVTISVDTSKNQFSLKLSSVTAADTAVYYCARGGGISRPEYWGKGTLVTVSSGGGGSGGGGSGGGGSALSSELTQDPPVSVALGQTVTLTCQGDSLRTYYASWYQQKSGQAPILLLYGKHKRPSGIPDRFSGSTSGDTASLTITGAQAEDEADYYCSTRSRKGNPHVLFGGGTQLTVL	12 nM	2.66 nM	1.6 nM	60.3 nM
scFv L18 (scFv) scFv: QVQLQESGPGLVKTSETLSLTCAVSGYSISSGYYWGWIRQPPGKGLEWIGSISHTGNTYYNPPLKSRVTISVDTSKNQFSLKLSSVTAADTAVYYCARGGGISRPEYWGKGTLVTVSSGGGGSGGGGSGGGGSALSSELTQDPPVSVALGQTVTLTCQGDSLRTYYASWYQQKSGQAPILLLYGKHKRPSGIPDRFSGSTSGDTASLTITGAQAEDEADYYCVTRSVKGNPHVLFGGGTQLTVL	8 nM	8.34 nM	3.7 nM	54.4 nM
scFv L21 (scFv) scFv: QVQLQESGPGLVKTSETLSLTCAVSGYSISSGYYWGWIRQPPGKGLEWIGSISHTGNTYYNPPLKSRVTISVDTSKNQFSLKLSSVTAADTAVYYCARGGGISRPEYWGKGTLVTVSSGGGGSGGGGSGGGGSALSSELTQDPPVSVALGQTVTLTCQGDSLRTYYASWYQQKSGQAPILLLYGKHKRPSGIPDRFSGSTSGDTASLTITGAQAEDEADYYCATRAVRGNPHVLFGGGTQLTVL	28 nM	162 nM	9.4 nM	~100 nM
